The target in experiment [1] is DV2 (Dengue virus serotype 2, virus used in FRNT) (Dengue virus serotype 2 (DV2)). As to the kind of experiment: cell-based or functional assay.
Experiment [2] concerns the target DV3 (Dengue virus serotype 3, virus used in FRNT) (Dengue virus serotype 3 (DV3)). The experiment can be described thus: cell-based or functional assay.
The target in experiment [3] is DV1 (Dengue virus serotype 1, virus used in FRNT) (Dengue virus serotype 1 (DV1)). The experiment can be described thus: cell-based or functional assay.
Experiment [4] has as its target T1, EDIII-DV2 (Dengue virus serotype 2 (DV2), UniProt P14337 581-673).
T1 construct: also called EDIII of DV2; EDIII-DVII
The experiment can be described thus: competition ELISA.

For experiment [5], the target named is T2, EDIII-DV3 (Dengue virus serotype 3 (DV3), UniProt Q6YMS3 579-671).
T2 construct: also called EDIII of DV3; EDIII-DVIII
As to the kind of experiment: competition ELISA. In general terms: ELISA stands for enzyme-linked immunosorbent assay.

Experiment [6] deals with T3, EDIII-DV1 (Dengue virus serotype 1 (DV1), UniProt P17763 581-673).
T3 construct: also called EDIII of DV1; EDIII-DVI
The experiment can be described thus: competition ELISA.

The target in experiment [7] is T1, EDIII-DV2. The experiment can be described thus: SPR.
For experiment [8], the target named is T2, EDIII-DV3. As to the kind of experiment: SPR. On the technique in general: In SPR one partner is held on a chip, and binding of the other changes the refractive index at the surface.
The target of experiment [9] is T3, EDIII-DV1. The experiment can be described thus: SPR.
The target of experiment [10] is T1, EDIII-DV2.
Experiment [11] concerns the target T2, EDIII-DV3.
The target of experiment [12] is T3, EDIII-DV1.
The target of experiment [13] is T1, EDIII-DV2. As to the kind of experiment: SPR. The source holds these as a separate data set.
The target of experiment [14] is T2, EDIII-DV3. The experiment can be described thus: SPR. The source holds these as a separate data set.
Experiment [15] concerns the target T3, EDIII-DV1. As to the kind of experiment: SPR. This is another data set of the same source.

Read-outs that look alike come from different tables or passages of the source.

Results on one molecule are retold here after patent US20200207841A1 (MIT, published 2020).

The Kd is the equilibrium constant for the complex coming apart. Low values mean tighter binding, high ones weaker binding. One may read the kon as a measure of how fast the partners come together. Higher therefore signals fast association. Broadly, the koff is the rate constant with which the complex falls apart. The low end stands for slow dissociation, the high end for fast dissociation.

B1: 4E11 WT (antibody, V domains shown)
VH: VKLLEQSGAELVKPGASVRLSCTASGFNIKDTYMSWVKQRPEQGLEWIGRIDPANGDTKYDPKFQGKATITADTSSNTAYLHLSSLTSGDTAVYYCSRGWEGFAYWGQGTLVTVSA
VL: ELVMTQTPASLAVSLGQRATISCRASENVDRYGNSFMHWYQQKAGQPPKLLIYRASNLESGIPARFSGSGSRTDFTLTINPVEADDVATYFCQRSNEVPWTFGGGTKLEIKR
notes: also called wt 4E11; mAb 4E11
On to B1, for which the figures for the “IC50 (read off the curve): neutralisation, relative infectivity against [4E11]” value in experiment [1], in [2] and in experiment [3] were around 0.03 µg/mL, around 0.5 µg/mL and around 0.06 µg/mL, respectively. Besides, the Kd worked out at 5.2 nM with EDIII-DV2 [4]; 21.8 nM with EDIII-DV3 [5]; 0.328 nM with EDIII-DV1 [6]; 5.2 nM with EDIII-DV2 [10]; 21.8 nM with EDIII-DV3 [11]; 0.328 nM in the experiment with EDIII-DV1 [12]. The Kd in the experiment with EDIII-DV2 [13] was found to be 6.2 nM; with EDIII-DV3 [14], 7.58 nM; with EDIII-DV1 [15], 0.5 nM. Besides, the kon with EDIII-DV2 [7] came out at 1.98e+06 M⁻¹ s⁻¹; in the experiment with EDIII-DV3 [8], 1.34e+06 M⁻¹ s⁻¹; in the experiment with EDIII-DV1 [9], 1.11e+06 M⁻¹ s⁻¹. In addition, the koff amounted to 0.0102 s⁻¹ with EDIII-DV3 [8] and 0.000551 s⁻¹ in the experiment with EDIII-DV1 [9].
